In experiment [1] the target is T1, native soluble IL-6R in human plasma (human, UniProt P08887). Nature of the experiment: ELISA 1, periplasmic extract; competitor IL-6; human plasma. Here is the method: (§1) In this ELISA, plasma was used as a source of native soluble IL-6R. By this assay, we aimed to confirm the alphascreen results and to get a view on the cross-reactivity of the clones towards cynomolgous IL-6R. Human plasma (ELISA 1 and ELISA 3) or cynomolgous plasma (ELISA 2) were pre-incubated with a dilution of the periplasmic extract of the clones together with human IL-6 (50 ng/mL). Subsequently, plasma soluble IL-6R was captured on a B-N12 coated plate and bound IL-6 was detected using anti-IL-6 antibody BAF206 and streptavidin-HRP (ELISA 1 and ELISA 2). The ELISA signal dropped when the Nanobody clone could compete with IL-6 for binding to soluble IL-6R. ELISA 3 was a parallel ELISA in which the detection antibody was replaced by anti-IL-6R antibody BAF227 to exclude false positive competitors, which actually compete with B-N12 (e.g. family 2). Depicted in Table C-5 is the ratio of the OD450 value of the test sample versus the blank OD450 (mock sample). Clones were ordered based on ELISA 1 data.
For orientation: In an ELISA, binding on a coated surface is turned into a signal by an enzyme label.

Experiment [2] concerns the target soluble IL-6R in cynomolgous plasma (cynomolgus monkey, UniProt A0A2K5WN54). Nature of the experiment: ELISA 2, periplasmic extract; competitor IL-6; cyno plasma. Here is the method: as §1
Experiment [3] concerns the target T1, native soluble IL-6R in human plasma. In words: ELISA 3, periplasmic extract; competitor BN-12; human plasma. Here is the method: as §1
Another experiment concerns the target IL-6R on TF-1 cells (Homo sapiens (Human), UniProt P08887). Nature of the experiment: cell-based or functional assay.

B1: IL6RPMP120F4 (VHH)
VHH: EVQLVESGGGLVQTGGSLRLSCAVSGRTDSTASVGWFRQAPGKQREWVVGISSGGSTHYADSVKGRFISSQDDAKNTVYLQMNSLKPEDTAIYYCAIAHGSSTYNYWGQGTQVTVSS
As for B1, the OD450 ratio sample/blank was 0.498 in experiment [1], 0.0331 in experiment [2] and 0.923 in experiment [3].

B2: IL6RPMP103D7 (VHH)
VHH: EVQLVESGGGLVEAGGSLRLSCAAAGRTLSSYSMAWFRQAPGKEREFVAIIRGNPSRTYHSDSVKGRFTASRDNAKNTVYLQMNRLEPEDTAVYYCAADPPPFASDYSAPQSYDYWGQGTQVTVSS
Take B2: the OD450 ratio sample/blank in experiment [1] came out at 0.355; in experiment [2], 0.0821; in experiment [3], 0.98.

B3: IL6RPMP101B3 (VHH)
VHH: EVQLVESGGGLVQAGGSLRLSCAASGSIFRINAMGWYRQAPGKQRELVAAAISGGSTNYADFVKGRFTISRDNAKNTVYLQMNSLKPEDTAVYYCNALVVSHNYSDYVPFPDDYWGQGTQVTVSS
As for B3, the OD450 ratio sample/blank in experiment [1] was determined as 0.402; in experiment [2], 1.05; in experiment [3], 0.972.

B4: IL6RPMP105C2 (VHH)
VHH: EVQLVESGGGLVQAGGSLRLSCAASGSIFRINAMGWYRQAPGEQRELVAAAISGGSTNYADFVKGRFTISRDNAKNTVYLQMNSLKPEDTAVYYCNALVVSHNYSDYVPFPDDYWGQGTQVTVSS
As to B4, the OD450 ratio sample/blank in experiment [1] is 0.577; in experiment [2] it was 1.01; in experiment [3], 0.996.

B5: IL6RPMP101G2 (VHH)
VHH: EVQLVESGGGLVQAGGSLRLSCAASGSIFRINAMGWYRQAPGKQRELVAAAISGGSTNYADFVKGRFTISRDNAKNTVYLQMNSLKPEDTAVYYCNALVVSHNYSDYVPFPDDYWGQGTQVTVSS
Regarding B5, the OD450 ratio sample/blank stood at 0.597 in experiment [1], 1.04 in experiment [2] and 0.975 in experiment [3].

B6: IL6RPMP105D3 (VHH)
VHH: EVQLEESGGGLVQAGGSLRLSCAASGSIFRINAMGWYRQAPGKQRELVAAAISGGSTNYADFVKGRFTISRDNAKNTVYLQMNSLKPEDTAVYYCNALVVSHNYSDYVPFPDDYWGQGTQVTVSS
For the molecule B6, the OD450 ratio sample/blank worked out at 0.457 in experiment [1], 0.995 in experiment [2] and 1.01 in experiment [3].

B7: IL6RPMP106F7 (VHH)
VHH: EVQLVESEGGLVQAGGSLRLSCAASGSIFRINAMGWYRQAPGKQRELVAAAISGGSTNYADFVKGRFTISRDNAKNTVYLQMNSLKPEDTAVYYCNALVVSHNYSDYVPFPDDYWGQGTQVTVSS
Consider B7, for which the OD450 ratio sample/blank is 0.672 in experiment [1], 1 in experiment [2] and 1 in experiment [3].

B8: IL6RPMP106F4 (VHH)
VHH: EVQLVESGGGLVQAGGSLRLSCAASGSIFRINAMGWYRQAPGKQRELVAAAISGGSTNYADFVKGRFTISRDNAKNTVYLQMNSLKPGDTAVYYCNALVVSHNYSDYVPFPDDYWGQGTQVTVSS
In the case of B8, the OD450 ratio sample/blank in experiment [1] is 0.557; in experiment [2] it was 1.19; in experiment [3], 1.01.

B9: IL6RPMP101A1 (VHH)
VHH: EVQLVESGGGTVQAGGSLKLSCAASGRTFTNYAMGWFRQAPGKEREFVAAIAYATHFADSVKGRFTISRGNAKNTVYLQMNSLKPEDTAVYYCAADLSLSKMVSKITSDMDYWGKGTLVTVSS
As for B9, the values for the OD450 ratio sample/blank in experiment [1], in experiment [2] and in experiment [3] were 0.508, 0.521 and 0.989, respectively.

B10: IL6RPMP120C1 (VHH)
VHH: EVQLVESGGGLVQAGGSLSLSCATSGRTISDDTMAWFRQAPGKEREFVATITFSGARTHYSDSVRDRFTISRDNAKNTVYLQMNSLKSEDTAVYYCAASTKYYSSTYNYIHPAFYDIWGQGTQVTVSS
For B10, the results for the OD450 ratio sample/blank in experiment [1], in experiment [2] and in experiment [3] were 0.567, 0.187 and 1.02, respectively.

B11: IL6RPMP120A1 (VHH)
VHH: EVQLVESGGGLVQAGGSLSLSCATSGRTISDDTMAWFRQAPGKEREFVATITFSGARTHYSDSVRDRFTISRDNAKNTVYLQMNSLKSEDTAVYYCAASTKYYSSTYNYIHPAFYDIWGQGTQVTVSS
Regarding B11, the OD450 ratio sample/blank was 0.598 in experiment [1], 0.198 in experiment [2] and 1.01 in experiment [3].

B12: IL6RPMP120B2 (VHH)
VHH: EVQLVESGGGLVQAGGSLSLSCATSGRTISDDTMAWFRQAPGKEREFVATITFSGARTHYSDSVRDRFTISRDNAKNTVYLQMNSLKSEDTAVYYCAASTKYYSSTYNYIHPAFYDIWGQGTQVTVSS
Turning to B12, the OD450 ratio sample/blank in experiment [1] turned out to be 0.645; in experiment [2] it was 0.204; in experiment [3], 1.02.

B13: IL6RPMP120D2 (VHH)
VHH: EVQLVESGGGLVQAGGSLSLSCATSGRTISDDTMAWFRQAPGKEREFVATITFSGARTHYSDSVRDRFTISRDNAKNTVYLQMNSLKSEDTAVYYCAASTKYYSSTYNYIHPAFYDIWGQGTQVTVSS
For the molecule B13, the OD450 ratio sample/blank in experiment [1] was determined as 0.659; in experiment [2], 0.158; in experiment [3] it was 0.993.

B14: IL6RPMP101F6 (VHH)
VHH: EVQLVESGGGLVQAGGSLRLSCAASGSIFSIKAMGWYRQAPGKQRELVARITSGGSTYYADSVKGRFTISRDNAKNTVYLQMNSLKPEDTAVFYCNAIVTDSDYDLGNDYWGQGTQVTVSS
Consider B14, for which the OD450 ratio sample/blank in experiment [1] is 0.0703; in experiment [2] it was 0.0273; in experiment [3] it was 0.947.

B15: Reference IgG (antibody, V domains shown)
VH: QVQLQESGPGLVRPSQTLSLTCTVSGYSITSDHAWSWVRQPPGRGLEWIGYISYSGITTYNPSLKSRVTMLRDTSKNQFSLRLSSVTAADTAVYYCARSLARTTAMDYWGQGSLVTVSS
VL: DIQMTQSPSSLSASVGDRVTITCRASQDISSYLNWYQQKPGKAPKLLIYYTSRLHSGVPSRFSGSGSGTDFTFTISSLQPEDIATYYCQQGNTLPYTFGQGTKVEIKR
With B15, the “IC50, IL-6-dependent proliferation of TF-1 cells (3H-thymidine)” value with IL-6R on TF-1 cells was 0.53 nM.

B16: IL6RPMP101F2 (VHH)
VHH: EVQLVESGGGLVQAGGSLRLSCAASGFAFDDYAIGWFRQAPGKEREGVSSISSSNGNTYYADSVRGRFTISSDNAKNTVYLQMNSLKPEDTGVYYCAAIWGIFFNEKMPVGAYDYWGQGTQVTVSS
In the case of B16, the OD450 ratio sample/blank was 0.569 in experiment [1], 0.811 in experiment [2] and 0.972 in experiment [3].

B17: IL6RPMP105H10 (VHH)
VHH: EVQMVESGGGLVQAGGSLRLSCAASGFAFDDYAIGWFRQAPGKEREGVSSISSSNGNTYYADSVRGRFTISSDNAKNTVYLQMNSLKPEDAGVYYCAAIWGIFFNEKMPVGAYDYWGQGTQVTVSS
Take B17: the OD450 ratio sample/blank in experiment [1] is 0.627; in experiment [2], 0.679; in experiment [3], 1.02.

B18: IL6RPMP101C3 (VHH)
VHH: EVQLVESGGGLVRAGGSLRLSCAASGFAFDDYAIGWFRQAPGKEREGVSSISSSNGNTYYADSVRGRFTISSDNAKNTVYLQMNSLKPEDTGVYYCAAIWGIFFNEKMPVGAYDYWGQGTQVTVSS
Regarding B18, the figures for the OD450 ratio sample/blank in experiment [1], in experiment [2] and in experiment [3] were 0.58, 0.801 and 0.975, respectively.

B19: IL6RPMP101G11 (VHH)
VHH: EVQLVESGGGLVQPGGSLRLSCAASASGFTLDYYAIGWFRQAPGKEREGVSCISSTDGSTYYADSVKGRFTISRDNAKNTVYLQMNSLNPEDTGVYTCAAVLTTAQAMGVPTRSYEYDYWGQGTQVTVSS
With B19, the OD450 ratio sample/blank in experiment [1] was found to be 0.227; in experiment [2], 0.0538; in experiment [3], 0.468.

B20: IL6RPMP107C3 (VHH)
VHH: EVQLVESGGGLVQAGGSLNLSCNASGDIGSINAMGWHRQAPGQQREWVAVITDTDSTIYPDSVKGRFAISRDGAKNTVHLRMSSLKPEDTAVYYCNAYQAGWGDYWGQGTQVTVSS
On to B20, for which the OD450 ratio sample/blank in experiment [1] is 0.438; in experiment [2], 0.904; in experiment [3] it was 1.06.

B21: IL6RPMP107G10 (VHH)
VHH: EVQLVESGGGLVQAGGSLRLSCAASGSIENINAMGWYRQAPGKQRDFLAIITDGSKTLYADSVKGRFTISNDNAKNTVYLQMNSLKPEDTAVYYCNAYQAGWGDYWGQGTQVTVSS
B21: the values for the OD450 ratio sample/blank in experiment [1], in experiment [2] and in experiment [3] were 0.523, 0.883 and 1.01, respectively.

B22: IL6RPMP107E4 (VHH)
VHH: EVQLVESGGGLVQAGGSLRLSCAASGSIDRINAMGWYRQAPGKQRDFLAVITDGDKTLYADSVKGRFTISNDNAKNTVYLQMNSLKPEDTAVYYCNAYQAGWGDYWGQGTQVTVSS
As to B22, the OD450 ratio sample/blank in experiment [1] came to 0.592; in experiment [2], 1.19; in experiment [3], 1.02.

(Values after patent publication US10618964B2, “Nanobody against IL-6R” (Ablynx N.V., dated 2020).)
